From patent publication US20250243277A1 (AVACTA LIFE SCIENCES, published 2025)

B1: Clone 8 (designed binder)
chain: MIPGGLSEAKPATPEIQEIVDKVKPQLEEKTGETYGKLEAVQYKTQVVPLPDPIDWVGTNYYIKVRAGDNKYMHLKVFKSLHIHLNQIYREDLVLTGYQVDKNKDDELTGF
notes: His-tagged
B2: Clone 83 (designed binder)
chain: MIPGGLSEAKPATPEIQEIVDKVKPQLEEKTGETYGKLEAVQYKTQVVIYHELWNFYGTNYYIKVRAGDNKYMHLKVFKSLDNNGDGNWQEDLVLTGYQVDKNKDDELTGF
notes: His-tagged
B3: Clone 85 (designed binder)
chain: MIPGGLSEAKPATPEIQEIVDKVKPQLEEKTGETYGKLEAVQYKTQVVNDGKSLVLAGTNYYIKVRAGDNKYMHLKVFKSLRLWDDRVSGEDLVLTGYQVDKNKDDELTGF
notes: His-tagged
B4: Clone 87 (designed binder)
chain: MIPGGLSEAKPATPEIQEIVDKVKPQLEEKTGETYGKLEAVQYKTQVVKRLHLPQYPGTNYYIKVRAGDNKYMHLKVFKSLGNIEPITDLEDLVLTGYQVDKNKDDELTGF
notes: His-tagged
B5: Clone 88 (designed binder)
chain: MIPGGLSEAKPATPEIQEIVDKVKPQLEEKTGETYGKLEAVQYKTQVVAVHAPQYAPGTNYYIKVRAGDNKYMHLKVFKSLWSEKVAVFPEDLVLTGYQVDKNKDDELTGF
notes: His-tagged
B6: Clone 90 (designed binder)
chain: MIPGGLSEAKPATPEIQEIVDKVKPQLEEKTGETYGKLEAVQYKTQVVLGWWFGINQGTNYYIKVRAGDNKYMHLKVFKSLAHLQYEWGGEDLVLTGYQVDKNKDDELTGF
notes: His-tagged
B7: Clone 91 (designed binder)
chain: MIPGGLSEAKPATPEIQEIVDKVKPQLEEKTGETYGKLEAVQYKTQVVNQEHFRRFIGTNYYIKVRAGDNKYMHLKVFKSLNPWLHPQDFEDLVLTGYQVDKNKDDELTGF
notes: His-tagged
B8: Clone 92 (designed binder)
chain: MIPGGLSEAKPATPEIQEIVDKVKPQLEEKTGETYGKLEAVQYKTQVDIDDDLWSGTNYYIKVRAGDNKYMHLKVFKSLILWPTKPEREDLVLTGYQVDKNKDDELTGF
notes: His-tagged
B9: Clone 93 (designed binder)
chain: MIPGGLSEAKPATPEIQEIVDKVKPQLEEKTGETYGKLEAVQYKTQVDQWGVDLVYTGTNYYIKVRAGDNKYMHLKVFKSLIVKRAVILWEDLVLTGYQVDKNKDDELTGF
notes: His-tagged
B10: Clone 94 (designed binder)
chain: MIPGGLSEAKPATPEIQEIVDKVKPQLEEKTGETYGKLEAVQYKTQVDKVYLVWAWTGTNYYIKVRAGDNKYMHLKVFKSLFQKGSNKPEEDLVLTGYQVDKNKDDELTGF
notes: His-tagged
B11: Clone 97 (designed binder)
chain: MIPGGLSEAKPATPEIQEIVDKVKPQLEEKTGETYGKLEAVQYKTQVDELDDAVKYWGTNYYIKVRAGDNKYMHLKVFKSLWWKTISADFEDLVLTGYQVDKNKDDELTGF
notes: His-tagged
B12: Clone 98 (designed binder)
chain: MIPGGLSEAKPATPEIQEIVDKVKPQLEEKTGETYGKLEAVQYKTQVDWAIWRDKKVGTNYYIKVRAGDNKYMHLKVFKSLPIFEIVREGEDLVLTGYQVDKNKDDELTGF
notes: His-tagged
B13: Clone 99 (designed binder)
chain: MIPGGLSEAKPATPEIQEIVDKVKPQLEEKTGETYGKLEAVQYKTQVDTWGERLHYPGTNYYIKVRAGDNKYMHLKVFKSLWHKPKDNIIEDLVLTGYQVDKNKDDELTGF
notes: His-tagged
B14: Clone 80 D82A (designed binder)
chain: MIPGGLSEAKPATPEIQEIVDKVKPQLEEKTGETYGKLEAVQYKTQVVRRKHFPQWPGTNYYIKVRAGDNKYMHLKVFKSLALQPREVFQEDLVLTGYQVDKNKDDELTGF
notes: alanine mutant of Clone 80 made in E. coli
B15: Clone 80 F53A (designed binder)
chain: MIPGGLSEAKPATPEIQEIVDKVKPQLEEKTGETYGKLEAVQYKTQVVRRKHAPQWPGTNYYIKVRAGDNKYMHLKVFKSLDLQPREVFQEDLVLTGYQVDKNKDDELTGF
notes: as for B14
B16: Clone 80 F89A (designed binder)
chain: MIPGGLSEAKPATPEIQEIVDKVKPQLEEKTGETYGKLEAVQYKTQVVRRKHFPQWPGTNYYIKVRAGDNKYMHLKVFKSLDLQPREVAQEDLVLTGYQVDKNKDDELTGF
notes: as for B14
B17: Clone 80 H52A (designed binder)
chain: MIPGGLSEAKPATPEIQEIVDKVKPQLEEKTGETYGKLEAVQYKTQVVRRKAFPQWPGTNYYIKVRAGDNKYMHLKVFKSLDLQPREVFQEDLVLTGYQVDKNKDDELTGF
notes: as for B14
B18: Clone 80 L83A (designed binder)
chain: MIPGGLSEAKPATPEIQEIVDKVKPQLEEKTGETYGKLEAVQYKTQVVRRKHFPQWPGTNYYIKVRAGDNKYMHLKVFKSLDAQPREVFQEDLVLTGYQVDKNKDDELTGF
notes: as for B14
B19: Clone 80 P54A (designed binder)
chain: MIPGGLSEAKPATPEIQEIVDKVKPQLEEKTGETYGKLEAVQYKTQVVRRKHFAQWPGTNYYIKVRAGDNKYMHLKVFKSLDLQPREVFQEDLVLTGYQVDKNKDDELTGF
notes: as for B14
B20: Clone 80 P57A (designed binder)
chain: MIPGGLSEAKPATPEIQEIVDKVKPQLEEKTGETYGKLEAVQYKTQVVRRKHFPQWAGTNYYIKVRAGDNKYMHLKVFKSLDLQPREVFQEDLVLTGYQVDKNKDDELTGF
notes: as for B14
B21: Clone 80 P85A (designed binder)
chain: MIPGGLSEAKPATPEIQEIVDKVKPQLEEKTGETYGKLEAVQYKTQVVRRKHFPQWPGTNYYIKVRAGDNKYMHLKVFKSLDLQAREVFQEDLVLTGYQVDKNKDDELTGF
notes: as for B14
B22: Clone 80 Q55A (designed binder)
chain: MIPGGLSEAKPATPEIQEIVDKVKPQLEEKTGETYGKLEAVQYKTQVVRRKHFPAWPGTNYYIKVRAGDNKYMHLKVFKSLDLQPREVFQEDLVLTGYQVDKNKDDELTGF
notes: as for B14
B23: Clone 80 Q84A (designed binder)
chain: MIPGGLSEAKPATPEIQEIVDKVKPQLEEKTGETYGKLEAVQYKTQVVRRKHFPQWPGTNYYIKVRAGDNKYMHLKVFKSLDLAPREVFQEDLVLTGYQVDKNKDDELTGF
notes: as for B14
B24: Clone 80 R50A (designed binder)
chain: MIPGGLSEAKPATPEIQEIVDKVKPQLEEKTGETYGKLEAVQYKTQVVRAKHFPQWPGTNYYIKVRAGDNKYMHLKVFKSLDLQPREVFQEDLVLTGYQVDKNKDDELTGF
notes: as for B14
B25: Clone 80 W56A (designed binder)
chain: MIPGGLSEAKPATPEIQEIVDKVKPQLEEKTGETYGKLEAVQYKTQVVRRKHFPQAPGTNYYIKVRAGDNKYMHLKVFKSLDLQPREVFQEDLVLTGYQVDKNKDDELTGF
notes: as for B14
B26: Clone 111 (designed binder)
chain: MIPGGLSEAKPATPEIQEIVDKVKPQLEEKTGETYGKLEAVQYKTQVDIQDRLGGFIGTNYYIKVRAGDNKYMHLKVFKSLHFYRGILYREDLVLTGYQVDKNKDDELTGF
notes: His-tagged
B27: Clone 58 (designed binder)
chain: MIPGGLSEAKPATPEIQEIVDKVKPQLEEKTGETYGKLEAVQYKTQVVKQLIIWHWTGTNYYIKVRAGDNKYMHLKVFKSLFKNSNSHLEEDLVLTGYQVDKNKDDELTGF
notes: His-tagged
B28: Clone 52 (designed binder)
chain: MIPGGLSEAKPATPEIQEIVDKVKPQLEEKTGETYGKLEAVQYKTQVVGIREDWNWSGTNYYIKVRAGDNKYMHLKVFKSLFEPKKLEPAEDLVLTGYQVDKNKDDELTGF
notes: His-tagged

Each binder was assayed against T1, human PD-L1-Fc (R&D Systems) (human, UniProt Q9NZQ7 19-239) (assay: soluble Affimer ELISA).
T1 construct: Bought from R&D Systems; Biotinylated in-house for the phage selection; also called huPD-L1-Fc; human PD-L1-Fc antigen; not shown: Fc part of the bought fusion
T1 sequence (Q9NZQ7 19-239 limits assumed): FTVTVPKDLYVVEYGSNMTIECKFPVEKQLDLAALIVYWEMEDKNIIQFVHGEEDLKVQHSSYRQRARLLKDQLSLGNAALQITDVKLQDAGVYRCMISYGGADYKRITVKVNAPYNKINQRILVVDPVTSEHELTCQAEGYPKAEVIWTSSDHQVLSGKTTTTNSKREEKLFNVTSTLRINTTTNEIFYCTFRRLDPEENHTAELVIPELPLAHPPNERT
B1: binds.
B2: binds.
B3: binds.
B4: binds.
B5: binds.
B6: binds.
B7: binds.
B8: binds.
B9: binds.
B10: binds.
B11: binds.
B12: binds.
B13: binds.

The binders below were run against T1, human PD-L1-Fc (R&D Systems) (assay: SPR (Biacore 8K), binding to PD-L1-Fc).
For B14, the Kd was 5.08 nM.
B15: no binding.
With B16 the Kd was 2.61 nM.
With B17 the Kd was 38 nM.
B18 showed a Kd of 1.48 nM.
In the case of B19, the Kd is reported as 0.93 nM.
B20 was tested, and the Kd was 8.91 nM.
In the case of B21, the Kd is reported as 2.53 nM.
Binder B22 has a Kd of 1.69 nM.
B23 was tested, and the Kd was 0.61 nM.
B24: no binding.
B25: no binding.

These binders were tested against T1, human PD-L1-Fc (R&D Systems) (assay: SPR (Biacore T200): human PD-L1-Fc amine-coupled on a CM5 chip, Affimer monomer titrated as analyte, 1:1 Langmuir fit).
Description: BIACORE™ T200 binding kinetic analysis was performed on monomer AFFIMER® clones with running buffer HBS-EP+ (Cytiva) and a series S sensor CM5 chip immobilized with human PD-L1-Fc (R&D Systems) in 10 mM Sodium acetate pH4.0 μsing amine coupling reagents (Cytiva). A concentration titration of AFFIMER® monomer was run as analyte with an association time of 150 seconds, followed by a dissociation time of 300 seconds at a flow rate of 30 μl/min. For Clone 80, the association time was increased to 500 seconds and 1000 seconds dissociation time. The human PD-L1-Fc immobilized surface was regenerated with 3-3.5 mM NaOH solution (Cytiva) for 20-30 seconds at 20 μl/min flow rate. The kinetic data was blank subtracted and fit to a 1:1 Langmuir binding model (BIAcore evaluation software; Cytiva) to calculate an apparent KD value.
B26 gave a Kd of 44 nM, a koff of 0.0457 s⁻¹ and a kon of 1.04e+06 M⁻¹ s⁻¹.

Each binder was assayed against T1, human PD-L1-Fc (R&D Systems) (assay: PD-L1/PD-1 competition ELISA, % inhibition: Affimer pre-incubated with huPD-L1-Fc, then loaded on plate-coated human PD-1-Fc (blocked ligand). Column head on the sheet reads 'EC50nM'; the text calls these values IC50).
Description: The competitive inhibition of AFFIMER® multimers was evaluated by enzyme linked immunosorbent assay (ELISA). Human PD-1-Fc (R&D Systems) was coated at 0.5 μg/ml on the plate. Plates were washed two times with […] of washing buffer (PBS, Tween 20 0.1%) with a plate washer and saturated with Casein 5% (Sigma) in PBS for 90 minutes at room temperature (25±1° C.). Plates were subsequently washed. AFFIMER® polypeptides and controls (human PD-1-Fc; R&D Systems or blank) were then diluted in duplicate, and preincubated with huPD-L1-Fc (R&D Systems) at a predefined concentration equivalent to the EC₈₀ for 30 minutes then loaded on the plate for 90 minutes at room temperature (25±1° C.). Plates were washed 3 times. Biotinylated polyclonal antibody anti-human PD-L1 (R&D Systems) was then diluted in dilution buffer and incubated 90 minutes at room temperature (25±1° C.). Plates were washed 3 times and Streptavidin HRP was incubated for 30 minutes at room temperature (25±1° C.). Plates were washed and the substrate (TMB; Pierce Thermo-Scientific) added to the plate for 10 minutes. The reaction was stopped using an acidic solution and plates were read at absorbance 450-630 nm. The IC₅₀ was then calculated using the interpolated non-linear four-parameter standard curve.
B27 showed an EC50 of 69.9 nM.
With B28 the EC50 was 197 nM.
